From patent publication US10556936B2, “Immunogenic proteins and fragments thereof from allergenic mites” (ALK-ABELLÓ A/S, priority 2016, dated 2020)

B1: A012: house dust mite protein; SEQ ID NO: 22 (Der p), 38 (Der f), 310 (Blo t) (protein)
chain: QSRDRNDKPYRIVCYWGTWAFYRPASGKFQAENVNPNLCTHIMYGFAKLQNNKIALYDPDLDDGDEDWNSGLQWGHGMIRRMVNLRTYNPHLTTMISLGGWNEGSDKYSIMVRDPASRKIFIQSVLHLLAEFDLDGLDFDWEYPAMQASGDSDRKPGRAEDKEDFVTLLRELHEAFQPHGYVLSSAVSAGKPTIDRAYNIPEVSKYLDFINLMSYDYHGGWESHTGHNAPLNSYKNANELDKEFTVTYSVEYWLNHGVDPKKLVLGIPLYGRTFTLAGSEHGIGAPTIGKGGESGTITRTIGMLGYNEICTMIKQGWQLYRDEIERIPYAVHANQWIGYDDRESVNEKLNLLMAKHLGGAMVWSIDTDDFVGNCVGVKYPLLRSISKKLNNVDGPDPDIKRYHYHTSTAKPHTDGTTSTHHDHKTTTTKHHKTTQPHHKTTQPHHTQTITTTTERPHGKFQCHQAGFFADPENPRKFHQCVDFGGHLKDYEFMCGEGTHYDEKLHICVR
B2: A013: house dust mite protein; SEQ ID NO: 36 (Der f), 37 (Der p), 311 (Blo t) (protein)
chain: DTPANCTYEDIKGLWLFEETEPIKDRWEKCPEHQQQREKYSKKIFIRLDFPNVAVDKFGNIGEWTMIYNQGFEVKINYRKYFAFSAYERKSENNVLSYCHKTQPGWSHDVLGNNWACYVGHKVNNWNDDDVSKTTTVGAEKFPVKQHSERELYLQNINVEHILSQKHIDHLNSQQKSWKAIVYPDLQSKSIEHLIQMAGGRKSRIINRPKPLRATEQQKQLARSLPESFDWRNLNGIDYVSPVRDQGKCGSCYTFASMAMLESRIRIQTNNTFKPIFSTQEVVDCSEYSQGCDGGFSYLIAGKYAQDFGVIDESCYPYKGVTGKCQNQQNFNQTNEKCKQRTYTIDYKYVGGYFGACNEEAMQIELVQNGPIAVGFEVYGDFFGYSEGIYSHQPSNESNDQHQQIKAEFNPFEMTNHAVLIVGYGKDKKTGEKYWIVKNSWGKQWGMDGYFWMRRGTDECAIESLAMAATPIPN

Tests used:
Assay type in all cases: cell-based, human
[1] = tested on: basophils in whole blood from HDM allergic donors; experiment: Basophil Activation Test (BAT); conditions: blood from HDM allergic individuals (n=14)
Procedure: Basophil Activation Test (BAT) was used as a predictive in vitro assay for indication of safety/immediate hypersensitivity reactions. The BAT assay is a widely used diagnostic test that is also used for evaluation of allergenicity of allergen derived components. In short: whole blood from HDM allergic donors was stimulated for 1 h with the proteins, and the increased expression of activation markers on the surface of basophils were measured by flow cytometry. The BAT test was carried out using different concentrations of the proteins and the allergens Der p 2 and Der p 1 was used as controls and tested in the same concentration rates.
(§1) This example relates to the further testing of immunogenicity of the proteins identified in Example 1. Their ability to react with IgE antibodies in HDM allergic individuals, to stimulate in vitro T cell proliferation of HDM allergic individuals and non-allergics, and to stimulate ex vivo cytokine production of HDM allergic individuals and non-allergics. The following tests were used: • Basophil Activation Test (BAT) was used as a predictive in vitro assay for indication of safety/immediate hypersensitivity reactions. BAT test was carried out using blood from HDM allergic individuals (n=14), and by use of different concentrations of test proteins or the major house dust mite allergens (Der p 1, Der f 1, Der p 2 or Der f 2, e.g. a concentration of 1, 10, 100 or 1000 ng/ml. • In vitro T cell reactivity determined in T cell lines obtained from HDM allergic individuals (n=30) and non-allergics (n=8): Determined by establishment of HDM specific T-cell lines according to standard methods. In short, PMBCs from HDM allergic donors were cultured for 3 weeks in the presence of house dust mite allergen extract. The responses to proteins at a concentration of 0.5 ug/ml or 2 ug/ml of the test protein or the major house dust mite allergens (Der p 1, Der f 1, Der p 2 or Der f 2) were assessed by proliferation in a standard 72 h T cell proliferation assay, as described in Henmar H et al., Clin Exp Immunol 2008; 153(3):316-23. […]. • Ex vivo stimulation of PBMC cells obtained from mite allergic patients (n=16) and non-allergics (n=6): Determined by measuring the production of the cytokines; IFN-gamma, IL-9, IL-10, IL-17 and IL-31 following stimulation with test protein in concentration up to 10 ug/ml. Freshly isolated PBMC 5×10^6/ml were cultured with a test protein for 5 days and cell supernatant were harvested and stored at −80° C. Cytokines of the supernatants were measured using ProcartaPlex Multiplex Immunoassays with MAGPIX Multiplex Reader according manufactory protocol.

[2] = tested on: T cell lines obtained from HDM allergic individuals and non-allergics; experiment: In vitro T cell proliferation test in T cell lines (Example 3); conditions: 0.5 or 2 ug/ml, 72 h; for % responders of in-vitro T cell proliferation test, Allergic: T cell lines from HDM allergic individuals (n=30); for % responders of in-vitro T cell proliferation test, Non-allergics: T cell lines from non-allergics (n=8)
Text: as §1

[3] = tested on: PBMC cells obtained from mite allergic patients and non-allergics; experiment: Ex vivo stimulation of PBMC: cytokine production (IFN-gamma, IL-9, IL-10, IL-17, IL-31)
Text: as §1

Molecule | # of individuals of 14 with positive BAT test ([1]; 1 ng/ml) | # of individuals of 14 with positive BAT test ([1]; 10 ng/ml) | # of individuals of 14 with positive BAT test ([1]; 100 ng/ml) | # of individuals of 14 with positive BAT test ([1]; 1000 ng/ml) | % responders of in-vitro T cell proliferation test, Allergic [2] | % responders of in-vitro T cell proliferation test, Non-allergics [2] | % HDM allergic individuals with cytokine production in ex-vivo T cell assay IL-5 [3] | % HDM allergic individuals with cytokine production in ex-vivo T cell assay IL-9 [3] | % HDM allergic individuals with cytokine production in ex-vivo T cell assay IL-10 [3] | % HDM allergic individuals with cytokine production in ex-vivo T cell assay IL-13 [3] | % HDM allergic individuals with cytokine production in ex-vivo T cell assay IL-17 [3] | % HDM allergic individuals with cytokine production in ex-vivo T cell assay IL-31 [3] | % HDM allergic individuals with cytokine production in ex-vivo T cell assay INF-g [3] | % non-allergic individuals with cytokine production in ex-vivo T cell assay IL-5 [3] | % non-allergic individuals with cytokine production in ex-vivo T cell assay IL-9 [3] | % non-allergic individuals with cytokine production in ex-vivo T cell assay IL-10 [3] | % non-allergic individuals with cytokine production in ex-vivo T cell assay IL-13 [3] | % non-allergic individuals with cytokine production in ex-vivo T cell assay IL-17 [3] | % non-allergic individuals with cytokine production in ex-vivo T cell assay IL-31 [3] | % non-allergic individuals with cytokine production in ex-vivo T cell assay INF-g [3]
B1 | 0 | 0 | 0 | 0 | 39% | 13% | 69% | 25% | 19% | 44% | 19% | 0% | 0% | 0% | 0% | 67% | 0% | 33% | 0% | 17%
B2 | 0 | 0 | 0 | 0 | 18% | 13% | 50% | 25% | 38% | 38% | 6% | 0% | 0% | 0% | 0% | 0% | 0% | 0% | 0% | 0%
